B1: half-human SCA B32oN-33 (scFv)
scFv: ELQLVEQSGAALVKPGDSVKMSCKASGYPFTDYIVHWVKQSHGKSLDWIGYINPYSGDTKFNEKFKSKATLTVDKSSSTAYMEFSRLTSEDSAIYYCARSGLIAVYFDYWGQGTTVTVSSGGGGSGGGGSGGGGSELVMTQSPATLSLSPGERATLSCRASQSVRTYLAWYQQKPGQAPRLLIYAASHRATGIPARFSGSGSGTDFTLTISRLEPEDFAVYYCQQYGSSPPTFGQGTKVEIKTGDYKDDDDKHHHHHH
notes: Expressed from pComb3H5BFlag/His
B2: half-human SCA B33oN-35 (scFv)
scFv: ELQLVEQSGAALVKPGDSVKMSCKASGYPFTDYIVHWVKQSHGKSLDWIGYINPYSGDTKFNEKFKSKATLTVDKSSSTAYMEFSRLTSEDSAIYYCARSGLIAVYFDYWGQGTTVTVSSGGGGSGGGGSGGGGSELQMTQSPSSLSASVGDRVTITCRASQSIGSSLHWYQQKPDQSPKLLIKFASQSFSGVPSRFGGSGSGTNFTLTINSLEAEDAATYYCQQSSTLPPTFGQGTKLEIKTGDYKDDDDKHHHHHH
notes: as for B1
B3: half-human SCA B33oN-115 (scFv)
scFv: ELQLVEQSGAALVKPGDSVKMSCKASGYPFTDYIVHWVKQSHGKSLDWIGYINPYSGDTKFNEKFKSKATLTVDKSSSTAYMEFSRLTSEDSAIYYCARSGLIAVYFDYWGQGTTVTVSSGGGGSGGGGSGGGGSELVLTQSPDFQSVTPKEKVTITCRASQSIGSSLHWYQQKPDQSPKLLIKFASQSLSGVPSRFSGSGSGTDFTLTISSLQPEDFATYYCQQSYSTPSTFGPGTKVEIKTGDYKDDDDKHHHHHH
notes: as for B1
B4: half-human SCA B32oN-67 (scFv)
scFv: B3 scFv with D144G, L190I, S198T, F218I, S231W, P235Q, V239L
notes: as for B1
B5: half-human SCA C32oN-34 (scFv)
scFv: ELQLVEQSGAALVKPGDSVKMSCKASGYPFTDYIVHWVKQSHGKSLDWIGYINPYSGDTKFNEKFKSKATLTVDKSSSTAYMEFSRLTSEDSAIYYCARSGLIAVYFDYWGQGTTVTVSSGGGGSGGGGSGGGGSELVLTQSPDFQSVTPKERVTITCRASQTIGNNLHWYQQKPGQSPKLLIKFASQSFSGVPSRFSGSGSGTDFTLTINSLEAEDAATYYCQQSYSTPWTFGQGTKVEIKTGDYKDDDDKHHHHHH
notes: as for B1
B6: half-human SCA B32oN-73 (scFv)
scFv: B3 scFv with D144G, L190I, S200T, F218I, S231W, P235Q, V239L
notes: as for B1
B7: half-human SCA C32oN-46 (scFv)
scFv: B3 scFv with S231P, P235Q
notes: as for B1
B8: half-human SCA C32oN-92 (scFv)
scFv: ELQLVEQSGAALVKPGDSVKMSCKASGYPFTDYIVHWVKQSHGKSLDWIGYINPYSGDTKFNEKFKSKATLTVDKSSSTAYMEFSRLTSEDSAIYYCARSGLIAVYFDYWGQGTTVTVSSGGGGSGGGGSGGGGSELVLTQSPDFQSVTPKEKVTITCRASQSIGSSLHWYQQKPDQSPKLLIKFASQSLSGVPSRFSGSGSGTDFALTINSLEAEDAATYYCQQSSTLPPTFGQGTKLEIKTGDYKDDDDKHHHHHH
notes: as for B1
B9: half-human SCA B32oN-48 (scFv)
scFv: B8 scFv with D144G, S178P, L190I, D205N, A207T, L239V
notes: as for B1
B10: half-human SCA C33oN-49 (scFv)
scFv: B8 scFv with L190F, A207T, S227Y, T228S, L229T, P231W
notes: as for B1
B11: half-human SCA C32oN-21 (scFv)
scFv: B8 scFv with D144G, L190I, S200T, A207T
notes: as for B1
B12: half-human SCA C32oN-10 (scFv)
scFv: B3 scFv with S211N, Q214E, P215A
notes: as for B1
B13: half-human SCA B32oN-10 (scFv)
scFv: ELQLVEQSGAALVKPGDSVKMSCKASGYPFTDYIVHWVKQSHGKSLDWIGYINPYSGDTKFNEKFKSKATLTVDKSSSTAYMEFSRLTSEDSAIYYCARSGLIAVYFDYWGQGTTVTVSSGGGGSGGGGSGGGGSELQMTQSPSSLSASVGDRVTITCRTSQTISSLLNWYQQKPGKAPKLLIYAASNLQSGVPSRFSGSGSGTDFTLTISGLQPEDFSTYFCQQSYSFPRTFGQGTKVDIKTGDYKDDDDKHHHHHH
notes: as for B1
B14: half-human SCA C32oN-89 (scFv)
scFv: ELQLVEQSGAALVKPGDSVKMSCKASGYPFTDYIVHWVKQSHGKSLDWIGYINPYSGDTKFNEKFKSKATLTVDKSSSTAYMEFSRLTSEDSAIYYCARSGLIAVYFDYWGQGTTVTVSSGGGGSGGGGSGGGGSELVLTQSPSSLSASVGDRVTITCRASQSISRYLNWYQQKPGKPPKLLIFVASNLQTGVPSRFSGSGSGTDFTLTISSLEPEDFAVYYCQQRSNWPLTFGGGTKVDIKTGDYKDDDDKHHHHHH
notes: as for B1
B15: half-human SCA C33oN-33 (scFv)
scFv: B3 scFv with S211N, Q214E, P215A, F218A
B16: half-human SCA C33oN-32 (scFv)
scFv: B8 scFv with D144E, T149A, L190F, S198G, D205N, A207T

Residue numbers refer to the chain shown, from its start.

The target of one assay is T1, recombinant human GM-CSF (rhGM-CSF), produced in E. coli (human, UniProt P04141 18-144).
T1 construct: The ELISA of 2.5.2 and the TF-1 proliferation assays say only rhGM-CSF without naming the preparation; they are assigned to this molecule; also called human GM-CSF antigen; recombinant human granulocyte macrophage colony stimulating factor
T1 sequence (P04141 18-144 limits assumed): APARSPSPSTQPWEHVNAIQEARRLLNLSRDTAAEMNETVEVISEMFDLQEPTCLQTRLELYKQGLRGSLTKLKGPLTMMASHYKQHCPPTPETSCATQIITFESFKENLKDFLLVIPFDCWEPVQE
Kind of assay: SPR off-rate ranking, purified periplasmic preparation over immobilized rhGM-CSF; clone listed among the sequenced hits in the 2nd table. The method, then: FIG. 9: Binding analysis (kinetic off rate) of SCA hits derived from the method of the invention, as determined by SPR. Binding kinetics of the SCA hits were measured injecting 10 µL of purified periplasmic preparation ("PPP") protein solution with a flow rate of 5 µL/min at 25° C. onto the sensor chip. The data were monitored in all four flow cells. Background association with the unmodified CM5 chip surface (FC1) was substracted from the binding to the immobilised rhGM-CSF (FC2) allowing analysis of the specific binding signal (FC2-FC1 response difference). The dissociation rate was monitored for 100 sec (FIG. 4). The amplitude of the binding peak (RUmax) directly correlates to the protein concentration in the injected sample. The kinetic association rate constant (ka) is concentration dependent and can—due to varying concentrations of the PPP protein solution—not be used for the qualitative ranking of the purified PPP SCA material. The kinetic dissociation rate constant (kd) is protein concentration independent and characteristic for the binding strength of the respective SCA hit. The SCA hits with the best apparent off rate were identified.
Turning to B1, the binding result was “binds”.
The same measure, in the same setting: next, B2: “binds”.
On the same count and under the same terms, the value for B3 was “binds”; that for B4 was “binds”.
On the same count and under the same terms, next, B5: “binds”; B6: “binds”.
Consider B7, for which the binding result is listed as “binds”.
Still for that read-out and setting: next, B8: “binds”; B9: “binds”.
The same measure, in the same setting: next, B10: “binds”.
The same measure, in the same setting: next, B11: “binds”; B12: “binds”.
Consider B13, for which the binding result is listed as “binds”.
The same measure, in the same setting: next, B14: “binds”.

The next assay has as its target T1, recombinant human GM-CSF (rhGM-CSF), …. Kind of assay: cell-based or functional assay.
B15: the “IC50 (read off the curve), TF-1 proliferation, C33ON-33 dimer” value is roughly 0.2 µg/mL and the “IC50 (read off the curve), TF-1 proliferation, C33ON-33 mono” value is roughly 0.2 µg/mL.
On to B16, for which the “IC50 (read off the curve), TF-1 proliferation, C33ON-32 dimer” value is roughly 0.1 µg/mL and the “IC50 (read off the curve), TF-1 proliferation, C33ON-32 mono” value was roughly 0.2 µg/mL.

For the origin of these results see patent publication US8247194 (Amgen, dated 2012).
